Assay [1] addresses T1, properdin (purified human complement component) (human, UniProt P27918 28-469).
T1 construct: Bought purified protein; also called fP
Put plainly: ELISA, coated CAT, properdin in solution, detected with goat α-properdin Ab.

The target in assay [2] is T1, properdin (purified human complement …). Briefly: solid-phase saturation binding ELISA, S20NS coated (10 ng/well), properdin titrated. A general note: In an ELISA, binding on a coated surface is turned into a signal by an enzyme label.

Consider two molecules from patent US20110014218A1 (UNIVERSITY OF NORTH CAROLINA AT CHAPEL HILL, published 2011).

T1 sequence (P27918 28-469 limits assumed): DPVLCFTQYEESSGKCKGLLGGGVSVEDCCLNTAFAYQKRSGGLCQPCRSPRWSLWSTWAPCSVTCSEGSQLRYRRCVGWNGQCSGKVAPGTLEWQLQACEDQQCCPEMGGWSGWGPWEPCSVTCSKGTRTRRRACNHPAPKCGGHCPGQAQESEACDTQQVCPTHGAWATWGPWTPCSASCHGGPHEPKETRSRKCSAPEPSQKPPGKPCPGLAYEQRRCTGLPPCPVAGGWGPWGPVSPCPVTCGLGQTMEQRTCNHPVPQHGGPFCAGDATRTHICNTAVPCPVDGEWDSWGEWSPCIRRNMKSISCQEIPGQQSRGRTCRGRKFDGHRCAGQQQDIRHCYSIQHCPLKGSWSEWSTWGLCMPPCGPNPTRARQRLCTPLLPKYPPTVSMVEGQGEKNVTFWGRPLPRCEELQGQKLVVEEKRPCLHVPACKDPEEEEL

B1: chloramphenicol acetyl-transferase protein containing C-terminal V5-epitope and 6x-histidine tags (CAT) (enzyme)
chain: MEKKITGYTTVDISQWHRKEHFEAFQSVAQCTYNQTVQLDITAFLKTVKKNKHKFYPAFIHILARLMNAHPEFRMAMKDGELVIWDSVHPCYTVFHEQTETFSSLWSEYHDDFRQFLHIYSQDVACYGENLAYFPKGFIENMFFVSANPWVSFTSFDLNVANMDNFFAPVFTMGKYYTQGDKVLMPLAIQVHHAVCDGFHVGRMLNELQQYCDEWQGGA
notes: Negative control protein expressed from the same expression vector as S20NS in High Five cells
For B1, the binding result in assay [1] is listed as “no binding”.

B2: S20NS (Salp20 protein containing C-terminal V5-epitope and 6x-histidine tags) (other)
chain: SEDGLEQDSKVETTTQNLYERHYRNNSGLCGAQYRNSSHAEAVYNCTLSLLPPKVNETWEGIRHRINKSIPEFVRLMCNFSVVMPEDFYLVYMGSNGNSYSEEDEESTDTDKDSKTGSSAAVEVTEKLILKAEENCTAHITGWTTEAPTTLEPTETQFEAIS
modifications: multiple N- and O-linked glycans (insect cell expressed)
notes: Recombinant protein secreted from stably transfected High Five insect cells and purified; also called I. scapularis salivary protein 20
The term Kd denotes the equilibrium constant for the complex coming apart. Read a high Kd as a looser complex. B2 had a Kd in assay [2] of 0.669 nM.
